Tested on: MS2 coat protein
Test: apparent KD of MS2 coat protein; designed switch direction (-1 OFF switch, 1 ON switch): -1; higher = weaker reporter binding
Procedure, shortened: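 Apparent KD, taken as the median over clusters for each design, was obtained by curve-fitting normalised cluster fluorescence. Designed RNA switches had been transcribed on Illumina chips by stalled E. coli RNA polymerase and titrated with SNAP-549-labelled MS2 coat protein, doubling from 0.7 or 1.5 nM to 3 µM.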

[1] = Eterna round: R95, input ligand: FMN 200 uM
[2] = Eterna round: R95, input ligand: microRNA oligo, concentration not stated
[3] = Eterna round: R95, input ligand: none
[4] = input ligand: microRNA oligo, concentration not stated

UUGCUACCUUGGUGCUCUACAAGCUUUUUGCUCGUUUUAACAUGAGGAUCACCCAUGUCUAGUGGAUCUGAUCGGGU [JL ViennaUCT Isreen mod 2] (puzzle: Sensor v3, turn-off variant 2)
apparent KD of MS2 coat protein [1]: 91.3 nM
apparent KD of MS2 coat protein [2]: 212 nM
apparent KD of MS2 coat protein [3]: 97.9 nM

UUGCUCCCUUAGUACUCUACAAGCUUUUUGUUCGUUUUAACAUGAGGAUCACCCAUGUCUAGUGGAUCUGAUCGGGU [JL ViennaUCT Isreen mod 4] (puzzle: Sensor v3, turn-off variant 2)
apparent KD of MS2 coat protein [1]: 136 nM
apparent KD of MS2 coat protein [2]: 226 nM
apparent KD of MS2 coat protein [3]: 165 nM

UUGCUUUCUUAGUACUCUACAAGUUUUUUGUUCGUUUUAACAUGAGGAUCACCCAUGUCUAGUGGAUCUGAUCGGGU [JL ViennaUCT Isreen mod 6] (puzzle: Sensor v3, turn-off variant 2)
apparent KD of MS2 coat protein [1]: 146 nM
apparent KD of MS2 coat protein [2]: 263 nM
apparent KD of MS2 coat protein [3]: 173 nM

UUGGAUAAUGUAGGAUAUGCAAGGCGAACCUAAGCAGAAGGACAUGAGGAUCACCCAUGUAAUGCGGUCUGCGUACAGAUCGCA [12th something] (Eterna round: R96, puzzle: Exclusion NG 1)
apparent KD of MS2 coat protein (input ligand: FMN 200 uM): 79 nM
apparent KD of MS2 coat protein [4]: 29 nM
apparent KD of MS2 coat protein (input ligand: none): 22.1 nM

UUGGCAGGUUUUUUGUUUGACAUGAGGAUCACCCAUGUUGCGUGGGUUGUGGGUGGGCGGUGUUUAUUUAUGGUUCU [-16.5, -38.6 kcal, A 12%] (Eterna round: R97, puzzle: Sensor, turn-off variant 1)
apparent KD of MS2 coat protein (input ligand: FMN 200 uM): 43.1 nM
apparent KD of MS2 coat protein (input ligand: none): 48.4 nM

UUGGCAGGUUUUUUGUUUGACAUGAGGAUCACCCAUGUUGCGUGGGUUGUGUGUGUGCGGUGUAUAUAUAUGGUUCU [-19.3, -40.7 kcal, A 14%] (Eterna round: R97, puzzle: Sensor, turn-off variant 1)
apparent KD of MS2 coat protein (input ligand: FMN 200 uM): 203 nM
apparent KD of MS2 coat protein (input ligand: none): 364 nM

UUGGUACUGGUAGGAUAUCCGUUGGAAACCGUCGGAGAAGGACCACAGUCACUGGGUCUUUGUCAAGUGGAGUGGAAGAACCAU [pwkr exNG1 F6.24] (Eterna round: R96, puzzle: Exclusion NG 1)
apparent KD of MS2 coat protein (input ligand: FMN 200 uM): 224 nM
apparent KD of MS2 coat protein [4]: 221 nM
apparent KD of MS2 coat protein (input ligand: none): 227 nM

UUGUAGCAGGCCUUCGAGUACAUGAGGAUCACCCAUGUCGUGCCUGAAAUCUCAGAGACAGGUGGCUCGUCUUAGGC [Eternabot (L1) Solution 32] (Eterna round: R97, puzzle: Sensor, turn-off variant 1)
apparent KD of MS2 coat protein (input ligand: FMN 200 uM): 21.2 nM
apparent KD of MS2 coat protein (input ligand: none): 16.9 nM

UUGUCGGCAGGAUAUACAUGAGGAUCACCCAUGUAAAUUUUUCGUUUAACUUGAAUGUGUAGAAGGGCCAUGUA [Ex3 #70] (Eterna round: R97, puzzle: Exclusion 3)
apparent KD of MS2 coat protein (input ligand: FMN 200 uM): 28.2 nM
apparent KD of MS2 coat protein (input ligand: none): 25.2 nM

UUGUCGUGUGUAGGAUAUCGUUGGCGUUCGCCGCGAGAAGGACAUGAGGAUCACCCAUGUGCGUCAGGGUCGUCCACAGGUGAU [-27/-25 Kcal and A 19%] (Eterna round: R96, puzzle: Exclusion NG 1)
apparent KD of MS2 coat protein (input ligand: FMN 200 uM): 663 nM
apparent KD of MS2 coat protein [4]: 281 nM
apparent KD of MS2 coat protein (input ligand: none): 371 nM

UUGUGCACGCUGCGGUCCUACAUGAGGAUCACCCAUGUGGUCUGGUGGCGUGGGUCGCCGGACUUGGCUCGUCUUGG [salish99_S_TOV1_R5_026] (Eterna round: R97, puzzle: Sensor, turn-off variant 1)
apparent KD of MS2 coat protein (input ligand: FMN 200 uM): 16.9 nM
apparent KD of MS2 coat protein (input ligand: none): 16.9 nM

UUGUGGGUACGAAGGUGUAGUUUGAGCGUACGUUCUGUAACAUGAGGAUCACCCAUGUCGCUUUUUGCUCGUCUUAU [JR_SV3TOV2_Sub036] (puzzle: Sensor v3, turn-off variant 2)
apparent KD of MS2 coat protein [1]: 24.7 nM
apparent KD of MS2 coat protein [2]: 68.2 nM
apparent KD of MS2 coat protein [3]: 24.8 nM

UUGUUACAUGAGGAUCACCCAUGUGAGGAUAUGGUUCAGUAAUGUAAUGUAAAGUAAUCCAGAAGGCACAUGUU [1st #26] (Eterna round: R97, puzzle: Exclusion 1)
apparent KD of MS2 coat protein (input ligand: FMN 200 uM): 1290 nM
apparent KD of MS2 coat protein (input ligand: none): 756 nM

UUGUUAUAUGUAGGAUAUGCGUGUUAUUGUUAGGCAGAAGGACAUGAGGAUCACCCAUGUAUGUUGUUGUUAUAUAUUAUAUAU [Title] (Eterna round: R96, puzzle: Exclusion NG 1)
apparent KD of MS2 coat protein (input ligand: FMN 200 uM): 41.9 nM
apparent KD of MS2 coat protein [4]: 21.2 nM
apparent KD of MS2 coat protein (input ligand: none): 34.4 nM

UUGUUCCAUUAUGAGAUCCACAUGAGGAUCACCCAUGUAGGAGUAACAAGCUUUGCUCGAUCUAUUUCAUGCUUCUG [Eternabot (L1) Solution 40] (Eterna round: R97, puzzle: Sensor, turn-off variant 1)
apparent KD of MS2 coat protein (input ligand: FMN 200 uM): 65.8 nM
apparent KD of MS2 coat protein (input ligand: none): 80.6 nM

UUGUUCCGUGUAGGAUAUUGGCCUUCCUCGGGCCGAGAAGGACAUGAGGAUCACCCAUGUAUGCUAUUAUCGCGCGUGGCGCAC [Design 95] (Eterna round: R96, puzzle: Exclusion NG 1)
apparent KD of MS2 coat protein (input ligand: FMN 200 uM): 279 nM
apparent KD of MS2 coat protein [4]: 22.4 nM
apparent KD of MS2 coat protein (input ligand: none): 39.9 nM

UUGUUCGAGCGGAGUUCUCACAUGAGGAUCACCCAUGUGCUCGUCUUGUGUGGUUCUGUGGCGUGGUUCGCGGUGCC [Sensor, turn-off variant 1] (Eterna round: R97, puzzle: Sensor, turn-off variant 1)
apparent KD of MS2 coat protein (input ligand: FMN 200 uM): 237 nM
apparent KD of MS2 coat protein (input ligand: none): 292 nM

UUGUUGUAUGUAGGAUAUGCAUAUUAUUAUUAUGCAGAAGGACAUGAGGAUCACCCAUGUAUAUUAUUAUUAUAUAUUAUAUAU [Title] (Eterna round: R96, puzzle: Exclusion NG 1)
apparent KD of MS2 coat protein [4]: 23.5 nM

UUGUUGUAUGUAGGAUAUGCAUAUUAUUAUUAUGCAGAAGGACAUGAGGAUCACCCAUGUAUAUUAUUAUUAUAUGUUAUAUAU [Title] (Eterna round: R96, puzzle: Exclusion NG 1)
apparent KD of MS2 coat protein [4]: 20 nM

UUGUUGUAUGUAGGAUAUGCAUAUUAUUAUUAUGCAGAAGGACAUGAGGAUCACCCAUGUAUGUUAUUAUUAUAUGUUAUAUAU [Title] (Eterna round: R96, puzzle: Exclusion NG 1)
apparent KD of MS2 coat protein [4]: 21.3 nM

UUGUUGUAUGUAGGAUAUGCGUGUUAUUAUUAUGCAGAAGGACAUGAGGAUCACCCAUGUGUAUUAUUAUUAUAUAUUAUAUAU [Title] (Eterna round: R96, puzzle: Exclusion NG 1)
apparent KD of MS2 coat protein [4]: 14.1 nM

UUGUUGUGUGUAGGAUAUGCGUGUUAUUAUUAUGCAGAAGGACAUGAGGAUCACCCAUGUGUAUUGUUAUUAUAUAUUAUAUAU [Title] (Eterna round: R96, puzzle: Exclusion NG 1)
apparent KD of MS2 coat protein [4]: 15.6 nM

UUGUUUUUCACAGGAUAUCGCCUCUUAUUACAUGAGGAUCACCCAUGUUUAUUUUGUUACAUGUUCGAGAAGGGUGUAGUCUUU [JR_ExcNG2_Sub047] (Eterna round: R96, puzzle: Exclusion NG 2)
apparent KD of MS2 coat protein (input ligand: FMN 200 uM): 586 nM
apparent KD of MS2 coat protein [4]: 368 nM
apparent KD of MS2 coat protein (input ligand: none): 475 nM

UUUAAAACAUAGGAUAUCGAAAUAAUCAUUUAACGAGAAGGAUGAACAUGAGGAUCACCCAUGUGGUAUCAUGG [Mat - Exclusion 6 - JL Mod - D18] (puzzle: Exclusion 6)
apparent KD of MS2 coat protein [1]: 364 nM
apparent KD of MS2 coat protein [2]: 230 nM
apparent KD of MS2 coat protein [3]: 409 nM

UUUAAACAUGAGGAUCACCCAUGUUAGGAUAUACGCAUGCAGACACACACGGAUGCAAGUAGAAGGAACCAUGC [Design #7] (Eterna round: R97, puzzle: Exclusion 1)
apparent KD of MS2 coat protein (input ligand: FMN 200 uM): 23.6 nM
apparent KD of MS2 coat protein (input ligand: none): 22.9 nM

UUUAACAAGCCAGAUCCUAACAUGAGGAUCACCCAUGUGCUCGUCUGAUUUUGUACUAUCAUGUGAGUGAUAGUAUU [Level Boss var2-04] (puzzle: Sensor v3, turn-off variant 1)
apparent KD of MS2 coat protein [1]: 174 nM
apparent KD of MS2 coat protein [2]: 683 nM
apparent KD of MS2 coat protein [3]: 308 nM

UUUAACAAGCCAGAUCCUCACAUGAGGAUCACCCAUGUGCUCGUCUGAUUUUGUACUAUCAUGUGAGUGAUAGUAUU [Level Boss var2-05] (Eterna round: R96, puzzle: Sensor v3, turn-off variant 1)
apparent KD of MS2 coat protein (input ligand: FMN 200 uM): 360 nM
apparent KD of MS2 coat protein [4]: 39.1 nM
apparent KD of MS2 coat protein (input ligand: none): 300 nM

UUUAACAAGCCAGAUCCUCACAUGAGGAUCACCCAUGUGCUCGUCUGAUUUUGUACUAUCAUGUGAGUGAUAGUAUU [Level Boss var2-05] (puzzle: Sensor v3, turn-off variant 1)
apparent KD of MS2 coat protein [1]: 165 nM
apparent KD of MS2 coat protein [2]: 15.2 nM
apparent KD of MS2 coat protein [3]: 181 nM

UUUAACAAGCCAGAUCCUCACAUGAGGAUCACCCAUGUGCUCGUCUGUUUUUGUACUAUCACGUUUGUGAUAGUGUU [Level Boss var2-08] (puzzle: Sensor v3, turn-off variant 1)
apparent KD of MS2 coat protein [1]: 220 nM
apparent KD of MS2 coat protein [2]: 16.2 nM
apparent KD of MS2 coat protein [3]: 295 nM

UUUAAGGUAAUUAAGAUCACAUGAGGAUCACCCAUGUAUAUAUAGGAUAUCAGCUCGUGUAGAGCUGAGAAGGAUAUAUACAUA [ExNG3/6-C3] (Eterna round: R96, puzzle: Exclusion NG 3)
apparent KD of MS2 coat protein (input ligand: FMN 200 uM): 24.9 nM
apparent KD of MS2 coat protein [4]: 48.3 nM
apparent KD of MS2 coat protein (input ligand: none): 542 nM

UUUAAUUUAAUUAAGAUCACAUGAGGAUCACCCAUGUAAUUAUAGGAUAUCAGCUCGAAUAGAGCUGAGAAGGAUAAUUACAUA [ExNG3/5-A4] (Eterna round: R96, puzzle: Exclusion NG 3)
apparent KD of MS2 coat protein [4]: 67.6 nM

UUUAAUUUAAUUAAGAUCACAUGAGGAUCACCCAUGUAUAUAUAGGAUAUCAGCUCGAAUAGAGCUGAGAAGGAUAUAUACAUA [ExNG3/4-A4] (Eterna round: R96, puzzle: Exclusion NG 3)
apparent KD of MS2 coat protein [4]: 39.4 nM

UUUAAUUUUUUUUUUUUACAAGCUUUUUGCUCGUCUUAUACAUGAGGAUCACCCAUGUAAAUGGGAAAUGAAUUAUC [JMF 95] (puzzle: Sensor v3, turn-off variant 2)
apparent KD of MS2 coat protein [1]: 322 nM
apparent KD of MS2 coat protein [2]: 447 nM
apparent KD of MS2 coat protein [3]: 188 nM

Source: the supplement of paper PMC9170038
